Literature values as cited in paper PMC7640956.

Target: Spike RBD (Severe acute respiratory syndrome coronavirus 2) (UniProt P0DTC2)

ACE2-derived 23-mer peptide (from UniProt Q9BYF1)
Kd: 47 nM
